Measurements taken from patent publication US20220177594A1.

Columns and labels:
[1] = target: Canine_OSMR_hlgG1_Fc (canine); experiment: SPR Biacore
[2] = target: Feline_OSMR_hlgG1_Fc (feline); experiment: SPR Biacore
[3] = target: Feline_OSMR_hlgG1_Fc (feline); experiment: indirect ELISA, fOSMR coated; OD ratio to antibody expression control

Canine_OSMR_hlgG1_Fc (canine), sequence (chain, as listed by the source limits assumed, form in doubt): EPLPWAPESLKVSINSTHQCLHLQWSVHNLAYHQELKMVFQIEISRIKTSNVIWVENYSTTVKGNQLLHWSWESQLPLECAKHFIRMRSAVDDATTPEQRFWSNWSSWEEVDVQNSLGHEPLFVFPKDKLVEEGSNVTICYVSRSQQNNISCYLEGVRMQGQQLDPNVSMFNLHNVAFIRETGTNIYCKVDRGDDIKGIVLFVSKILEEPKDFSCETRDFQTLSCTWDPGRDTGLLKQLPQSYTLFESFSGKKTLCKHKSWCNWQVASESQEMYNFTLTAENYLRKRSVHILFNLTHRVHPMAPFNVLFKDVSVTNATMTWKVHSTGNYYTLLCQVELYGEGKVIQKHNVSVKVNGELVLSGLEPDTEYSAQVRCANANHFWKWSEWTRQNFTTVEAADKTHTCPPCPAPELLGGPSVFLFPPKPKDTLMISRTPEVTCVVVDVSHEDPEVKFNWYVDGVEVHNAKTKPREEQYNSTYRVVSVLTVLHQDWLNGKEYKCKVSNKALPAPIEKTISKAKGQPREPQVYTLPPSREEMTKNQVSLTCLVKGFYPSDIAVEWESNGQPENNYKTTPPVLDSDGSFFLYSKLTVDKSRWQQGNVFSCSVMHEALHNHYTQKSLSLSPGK
Feline_OSMR_hlgG1_Fc (feline), sequence (chain, as listed by the source limits assumed, form in doubt): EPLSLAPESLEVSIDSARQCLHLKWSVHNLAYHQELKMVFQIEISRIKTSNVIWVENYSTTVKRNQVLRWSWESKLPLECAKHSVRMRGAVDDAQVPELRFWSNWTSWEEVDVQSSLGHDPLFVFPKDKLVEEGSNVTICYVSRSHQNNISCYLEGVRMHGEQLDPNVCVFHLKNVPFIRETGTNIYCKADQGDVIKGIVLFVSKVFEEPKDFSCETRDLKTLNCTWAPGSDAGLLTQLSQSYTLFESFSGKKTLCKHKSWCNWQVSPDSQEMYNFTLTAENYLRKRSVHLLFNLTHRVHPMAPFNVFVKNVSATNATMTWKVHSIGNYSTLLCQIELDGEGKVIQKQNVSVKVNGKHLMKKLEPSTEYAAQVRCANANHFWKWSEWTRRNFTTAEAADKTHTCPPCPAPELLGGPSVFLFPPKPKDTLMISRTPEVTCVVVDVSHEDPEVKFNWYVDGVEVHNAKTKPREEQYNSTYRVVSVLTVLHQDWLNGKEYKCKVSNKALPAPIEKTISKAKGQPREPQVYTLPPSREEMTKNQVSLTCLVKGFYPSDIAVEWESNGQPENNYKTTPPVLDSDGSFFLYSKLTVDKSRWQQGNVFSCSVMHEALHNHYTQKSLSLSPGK

| Binder | Kd [1] | koff [1] | kon [1] | Kd [2] | koff [2] | kon [2] | ELISA ratio [3] |
| --- | --- | --- | --- | --- | --- | --- | --- |
| Mu_02D09_VH (SEQ ID NO: 31)_D31A (antibody, V domains shown) VH: EVQLVESGGGLVKPGGSLTLSCAASGFTFSAYGMHWLRQAPEKGLEWVAYISSGSRAVFFADTVKGRFTISRDNAKNTLFLQMTSLRSDDTAMYYCARDRYDGRGFAYWGQGTLVTVSA VL: DIVLTQSPATLSVTPGDSVSLSCRASQSISNNLHWYQQTSHESPRLLITYASQSISGIPSRFSGSGSGTDFTLSINSVETEDFGMYFCQQSNSWPLTFGAGTKLELKR | 3.92 nM | 0.00356 s⁻¹ | 908000 M⁻¹ s⁻¹ | 0.767 nM | 0.000872 s⁻¹ | 1.14e+06 M⁻¹ s⁻¹ | 0.159 OD ratio |
| Mu_02D09_VL (SEQ ID NO: 33)_S56A (antibody, V domains shown) VH: EVQLVESGGGLVKPGGSLTLSCAASGFTFSDYGMHWLRQAPEKGLEWVAYISSGSRAVFFADTVKGRFTISRDNAKNTLFLQMTSLRSDDTAMYYCARDRYDGRGFAYWGQGTLVTVSA VL: DIVLTQSPATLSVTPGDSVSLSCRASQSISNNLHWYQQTSHESPRLLITYASQSIAGIPSRFSGSGSGTDFTLSINSVETEDFGMYFCQQSNSWPLTFGAGTKLELKR | 159 nM | 0.00653 s⁻¹ | 41200 M⁻¹ s⁻¹ | 9.3 nM | 0.00107 s⁻¹ | 116000 M⁻¹ s⁻¹ | 0 OD ratio |
| Mu_02D09_VH (SEQ ID NO: 31)_Y32A (antibody, V domains shown) VH: EVQLVESGGGLVKPGGSLTLSCAASGFTFSDAGMHWLRQAPEKGLEWVAYISSGSRAVFFADTVKGRFTISRDNAKNTLFLQMTSLRSDDTAMYYCARDRYDGRGFAYWGQGTLVTVSA VL: DIVLTQSPATLSVTPGDSVSLSCRASQSISNNLHWYQQTSHESPRLLITYASQSISGIPSRFSGSGSGTDFTLSINSVETEDFGMYFCQQSNSWPLTFGAGTKLELKR | 34.8 nM | 0.0246 s⁻¹ | 707000 M⁻¹ s⁻¹ | 6.39 nM | 0.000765 s⁻¹ | 120000 M⁻¹ s⁻¹ | 0.991 OD ratio |
| Mu_02D09_VL (SEQ ID NO: 33)_Q27A (antibody, V domains shown) VH: EVQLVESGGGLVKPGGSLTLSCAASGFTFSDYGMHWLRQAPEKGLEWVAYISSGSRAVFFADTVKGRFTISRDNAKNTLFLQMTSLRSDDTAMYYCARDRYDGRGFAYWGQGTLVTVSA VL: DIVLTQSPATLSVTPGDSVSLSCRASASISNNLHWYQQTSHESPRLLITYASQSISGIPSRFSGSGSGTDFTLSINSVETEDFGMYFCQQSNSWPLTFGAGTKLELKR | 35 nM | 0.00441 s⁻¹ | 126000 M⁻¹ s⁻¹ | 7.57 nM | 0.00109 s⁻¹ | 144000 M⁻¹ s⁻¹ | 0.025 OD ratio |
| Mu_10F07_VH (SEQ ID NO: 39)_D99A (antibody, V domains shown) VH: DVKLVESGEGLVKPGGSLKLSCAASGFTFSSYAMSWVRQTPEKRLEWVTYISSGGDYFYYADTVKGRFTISRDNARNTLYLQMSSLKSEDTAMYYCTRAPITGTFAYWGQGTLVTVSA VL: DIQMTQTTSSLSASLGDRVTISCRASQDITNYLNWYQQKPDGTVKLLIYYTSTLHSGVPSRFSGSGSGTDFSLTISNLEQEDIATYFCQQGHMLPWTFGGGTKLEIKR | 11.2 nM | 0.000576 s⁻¹ | 51600 M⁻¹ s⁻¹ | 3.18 nM | 0.000704 s⁻¹ | 221000 M⁻¹ s⁻¹ | 0.545 OD ratio |
| Mu_10F07_VH (SEQ ID NO: 39)_Y107A (antibody, V domains shown) VH: DVKLVESGEGLVKPGGSLKLSCAASGFTFSSYAMSWVRQTPEKRLEWVTYISSGGDYFYYADTVKGRFTISRDNARNTLYLQMSSLKSEDTAMYYCTRDPITGTFAAWGQGTLVTVSA VL: DIQMTQTTSSLSASLGDRVTISCRASQDITNYLNWYQQKPDGTVKLLIYYTSTLHSGVPSRFSGSGSGTDFSLTISNLEQEDIATYFCQQGHMLPWTFGGGTKLEIKR | 1.69 nM | 6.76e-05 s⁻¹ | 40100 M⁻¹ s⁻¹ | 1.43 nM | 0.000247 s⁻¹ | 173000 M⁻¹ s⁻¹ | 0.375 OD ratio |
| Mu_10F07_VL (SEQ ID NO: 41)_T53A (antibody, V domains shown) VH: DVKLVESGEGLVKPGGSLKLSCAASGFTFSSYAMSWVRQTPEKRLEWVTYISSGGDYFYYADTVKGRFTISRDNARNTLYLQMSSLKSEDTAMYYCTRDPITGTFAYWGQGTLVTVSA VL: DIQMTQTTSSLSASLGDRVTISCRASQDITNYLNWYQQKPDGTVKLLIYYTSALHSGVPSRFSGSGSGTDFSLTISNLEQEDIATYFCQQGHMLPWTFGGGTKLEIKR | 3.94 nM | 0.000256 s⁻¹ | 65000 M⁻¹ s⁻¹ | 1.83 nM | 0.000468 s⁻¹ | 255000 M⁻¹ s⁻¹ | 0.217 OD ratio |
| Mu_10F07_VL (SEQ ID NO: 41)_L33A (antibody, V domains shown) VH: DVKLVESGEGLVKPGGSLKLSCAASGFTFSSYAMSWVRQTPEKRLEWVTYISSGGDYFYYADTVKGRFTISRDNARNTLYLQMSSLKSEDTAMYYCTRDPITGTFAYWGQGTLVTVSA VL: DIQMTQTTSSLSASLGDRVTISCRASQDITNYANWYQQKPDGTVKLLIYYTSTLHSGVPSRFSGSGSGTDFSLTISNLEQEDIATYFCQQGHMLPWTFGGGTKLEIKR | 5.48 nM | 0.000222 s⁻¹ | 40500 M⁻¹ s⁻¹ | 1.53 nM | 0.000274 s⁻¹ | 179000 M⁻¹ s⁻¹ | 0.15 OD ratio |

More lines, now with the values ahead:

| Kd [1] | koff [1] | kon [1] | Kd [2] | koff [2] | kon [2] | ELISA ratio [3] | Binder |
| --- | --- | --- | --- | --- | --- | --- | --- |
| 40 nM | 8.63 s⁻¹ | 2.16e+08 M⁻¹ s⁻¹ | 7.03 nM | 0.00158 s⁻¹ | 225000 M⁻¹ s⁻¹ | 0.134 OD ratio | Mu_10F07_VL (SEQ ID NO: 41)_W96A (antibody, V domains shown) VH: DVKLVESGEGLVKPGGSLKLSCAASGFTFSSYAMSWVRQTPEKRLEWVTYISSGGDYFYYADTVKGRFTISRDNARNTLYLQMSSLKSEDTAMYYCTRDPITGTFAYWGQGTLVTVSA VL: DIQMTQTTSSLSASLGDRVTISCRASQDITNYLNWYQQKPDGTVKLLIYYTSTLHSGVPSRFSGSGSGTDFSLTISNLEQEDIATYFCQQGHMLPATFGGGTKLEIKR |
| – | – | – | 0.407 nM | 0.000108 s⁻¹ | 266000 M⁻¹ s⁻¹ | 1.06 OD ratio | Mu_19F07_VH (SEQ ID NO: 47)_Y33A (antibody, V domains shown) VH: EVKLVESEGGLVQPGSSMKLSCTASGFTFSDYAMAWVRQVPEKGLEWVANINYDGSSTYYLDSLKSRFIISRDNAKNILYLQMSSLKSEDTATYYCARGLTWDFDVWGTGTTVTVSS VL: DIVMTQSHKFMSPSVGDRVSITCKASQDVDTAVAWYQQKPGQSPKLLIYLASTRHTGVPDRFTGSGSGTDFTLTISNVQSEDLADYFCQQYSRFPLTFGAGTKLELKR |
| – | – | – | 0.4 nM | 0.000141 s⁻¹ | 351000 M⁻¹ s⁻¹ | 0.74 OD ratio | Mu_19F07_VH (SEQ ID NO: 47)_Y59A (antibody, V domains shown) VH: EVKLVESEGGLVQPGSSMKLSCTASGFTFSDYYMAWVRQVPEKGLEWVANINYDGSSTAYLDSLKSRFIISRDNAKNILYLQMSSLKSEDTATYYCARGLTWDFDVWGTGTTVTVSS VL: DIVMTQSHKFMSPSVGDRVSITCKASQDVDTAVAWYQQKPGQSPKLLIYLASTRHTGVPDRFTGSGSGTDFTLTISNVQSEDLADYFCQQYSRFPLTFGAGTKLELKR |
| – | – | – | 0.0052 nM | 4.7e-07 s⁻¹ | 90400 M⁻¹ s⁻¹ | 1.09 OD ratio | Mu_19F07_VL (SEQ ID NO: 49)_F94A (antibody, V domains shown) VH: EVKLVESEGGLVQPGSSMKLSCTASGFTFSDYYMAWVRQVPEKGLEWVANINYDGSSTYYLDSLKSRFIISRDNAKNILYLQMSSLKSEDTATYYCARGLTWDFDVWGTGTTVTVSS VL: DIVMTQSHKFMSPSVGDRVSITCKASQDVDTAVAWYQQKPGQSPKLLIYLASTRHTGVPDRFTGSGSGTDFTLTISNVQSEDLADYFCQQYSRAPLTFGAGTKLELKR |
| – | – | – | 0.00536 nM | 9.05e-07 s⁻¹ | 169000 M⁻¹ s⁻¹ | 0.821 OD ratio | Mu_19F07_VL (SEQ ID NO: 49)_T53A (antibody, V domains shown) VH: EVKLVESEGGLVQPGSSMKLSCTASGFTFSDYYMAWVRQVPEKGLEWVANINYDGSSTYYLDSLKSRFIISRDNAKNILYLQMSSLKSEDTATYYCARGLTWDFDVWGTGTTVTVSS VL: DIVMTQSHKFMSPSVGDRVSITCKASQDVDTAVAWYQQKPGQSPKLLIYLASARHTGVPDRFTGSGSGTDFTLTISNVQSEDLADYFCQQYSRFPLTFGAGTKLELKR |
| – | – | – | 0.0511 nM | 2.38e-06 s⁻¹ | 46500 M⁻¹ s⁻¹ | 0.985 OD ratio | Mu_19F07_VL (SEQ ID NO: 49)_Q89A (antibody, V domains shown) VH: EVKLVESEGGLVQPGSSMKLSCTASGFTFSDYYMAWVRQVPEKGLEWVANINYDGSSTYYLDSLKSRFIISRDNAKNILYLQMSSLKSEDTATYYCARGLTWDFDVWGTGTTVTVSS VL: DIVMTQSHKFMSPSVGDRVSITCKASQDVDTAVAWYQQKPGQSPKLLIYLASTRHTGVPDRFTGSGSGTDFTLTISNVQSEDLADYFCAQYSRFPLTFGAGTKLELKR |
| – | – | – | 0.00048 nM | 1.31e-07 s⁻¹ | 273000 M⁻¹ s⁻¹ | 1.08 OD ratio | Mu_19F07_VL (SEQ ID NO: 49)_Q90A (antibody, V domains shown) VH: EVKLVESEGGLVQPGSSMKLSCTASGFTFSDYYMAWVRQVPEKGLEWVANINYDGSSTYYLDSLKSRFIISRDNAKNILYLQMSSLKSEDTATYYCARGLTWDFDVWGTGTTVTVSS VL: DIVMTQSHKFMSPSVGDRVSITCKASQDVDTAVAWYQQKPGQSPKLLIYLASTRHTGVPDRFTGSGSGTDFTLTISNVQSEDLADYFCQAYSRFPLTFGAGTKLELKR |
| – | – | – | – | – | 144000 M⁻¹ s⁻¹ | 0.982 OD ratio | Mu_19F07_VH (SEQ ID NO: 47)_F104A (antibody, V domains shown) VH: EVKLVESEGGLVQPGSSMKLSCTASGFTFSDYYMAWVRQVPEKGLEWVANINYDGSSTYYLDSLKSRFIISRDNAKNILYLQMSSLKSEDTATYYCARGLTWDADVWGTGTTVTVSS VL: DIVMTQSHKFMSPSVGDRVSITCKASQDVDTAVAWYQQKPGQSPKLLIYLASTRHTGVPDRFTGSGSGTDFTLTISNVQSEDLADYFCQQYSRFPLTFGAGTKLELKR |
| – | – | – | 0.0143 nM | 5.86e-07 s⁻¹ | 41100 M⁻¹ s⁻¹ | 1.11 OD ratio | Mu_19F07_VL (SEQ ID NO: 49)_L50A (antibody, V domains shown) VH: EVKLVESEGGLVQPGSSMKLSCTASGFTFSDYYMAWVRQVPEKGLEWVANINYDGSSTYYLDSLKSRFIISRDNAKNILYLQMSSLKSEDTATYYCARGLTWDFDVWGTGTTVTVSS VL: DIVMTQSHKFMSPSVGDRVSITCKASQDVDTAVAWYQQKPGQSPKLLIYAASTRHTGVPDRFTGSGSGTDFTLTISNVQSEDLADYFCQQYSRFPLTFGAGTKLELKR |
